In patent US20110262438A1 (Ablynx, published 2011):

B1: 07C3 with Tag-1 (VHH)
VHH: EVQLVESGGGLVQAGESLTLSCAASGRTLSAYIMGWFRQAPGKEREFVAGIWSGGYTHLADSAKGRFSISRDNAKNTVYLQMNGLKPEDTAVYYCAAGLRGRQYSNWGQGTQVTVSS
B2: 07C3 with Tag-2 (VHH)
VHH: B1 VHH
notes: Purified monovalent Nanobody from E. coli (pAX100); also called 7CXCR07C3
B3: 07B11 with Tag-1 (VHH)
VHH: EVQLVESGGNLVQAGGSLGLSCAASVSISSIHIMGWYRQAPGKQRDLVATITSGGSTAYADSVKGRFTVSKDNAKNTVYLQMDSLKPEDTSVYYCAAEVRNGVFGKWNHYWGQGTQVTVSS
B4: 07B11 with Tag-2 (VHH)
VHH: B3 VHH
notes: Purified monovalent Nanobody from E. coli (pAX100); also called 707B11
B5: 08A5 with Tag-1 (VHH)
VHH: EVQLVESGGGLVQAGDSLRLSCAASGLTFSNYDMGWFRQAPGKEREFVGASWWSGGAPYYSDSVKGRFTISRDNAKNTVYLQANSLRPEDTAVYYCAAKRLRSFASGGSYDYWGQGTQVTVSS
B6: 08A5 with Tag-2 (VHH)
VHH: B5 VHH
notes: Purified monovalent Nanobody from E. coli (pAX100)
B7: 08A10 with Tag-1 (VHH)
VHH: EVQLVESGGGLVQAGGSLRLSCAASGSIFSIAAMGWYRQATGKQRELVATITDGGTTTYADSVKGRVTISRDRSANTVYLAMNNLKPDDTAVYYCYAYLRYTSRVPGDNYWGQGTQVTVSS
B8: 08A10 with Tag-2 (VHH)
VHH: B7 VHH
notes: as for B6
B9: Mab 11G8 (R&D Systems) (antibody, V domains shown)
VH: EVKLVESGGDLVQPGGSLKLSCATSGFTFSDYYMFWVRQTPEKRLEWVAYITNGGDRSYYSDTVTGRFIISRDNAKNTLYLQMSRLKSEDTAMYYCARQGNWAAWFVYWGQGTLVTVSA
VL: DVLMTQTPLSLPVSLGDQASISCRSSHYIVHSDGNTYLEWYLQKPGQSPKLLIYKVSNRFSGVPDRFSGSGSGTDFTLKISRVEAEDLGIYYCFQGSHVPLTFGAGTKLELKR

Tests used:
Human CXCR7 [1] = target: T1, Human CXCR7 (human, UniProt P25106 1-362); assay: competition FACS, 4 nM biotinylated SDF1 on HEK-hCXCR7 cells
T1 construct: also called hCXCR7; CXCR7-LP
T1 sequence (P25106 whole entry): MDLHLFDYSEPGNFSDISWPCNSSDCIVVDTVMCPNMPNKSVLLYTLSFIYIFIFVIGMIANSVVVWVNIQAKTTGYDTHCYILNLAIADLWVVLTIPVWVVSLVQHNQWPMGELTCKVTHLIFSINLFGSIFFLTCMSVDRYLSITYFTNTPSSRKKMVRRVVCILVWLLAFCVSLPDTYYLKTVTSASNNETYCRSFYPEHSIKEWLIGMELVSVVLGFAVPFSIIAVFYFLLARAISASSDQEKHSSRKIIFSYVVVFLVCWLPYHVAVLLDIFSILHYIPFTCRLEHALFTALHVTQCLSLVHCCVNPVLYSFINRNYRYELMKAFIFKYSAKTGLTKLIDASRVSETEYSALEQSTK
Procedure: The potency of Nanobody 7CXCR07C3 and Mab 8F11 (Biolegend) to compete with SDF1 was evaluated in competition FACS with HEK-hCXCR7 cells. Cells were incubated simultaneously with 4 nM biotinylated SDF1 (R&D) and with diluted test molecules, for 2 h at 4° C. Binding of biotinylated SDF1 was detected using streptavidin-PE. Competition curves are depicted in FIG. 1.

Human CXCR7 [2] = target: T1, Human CXCR7; assay: displacement of 75 pM [125I]-CXCL12 from NIH3T3-hCXCR7 cells
Procedure: In order to assess the competition capacity, Nanobodies were evaluated in SDF1 ligand displacement assays using stable NIH3T3-hCXCR7 cells. 24 h after seeding the cells, the cells were pre-incubated for 1 h at 4° C. with a dilution series of purified monovalent Nanobodies and the corresponding C-terminal Tag-2 tagged fusion proteins to the human serum albumin binding Nanobody Alb8 (see Table B-4: SEQ ID NOs: 44 to 48 wherein the polypeptides are all C-terminal tagged with Tag-2). Also reference molecules Mab 8F11 (Biolegend), Mab 11G8 (R&D) and unlabelled SDF1 were included in the assay. Radiolabeled [¹²⁵I]-CXCL12 was diluted and added to the cells to reach a final concentration of 75 pM and cells were incubated for 3 h at 4° C. After incubation, cells were washed twice, lysed with RIPA buffer and the ¹²⁵I signal was measured. The competition of tested Nanobodies and 8F11 Mab is between 73 and 83%, relative to competition with unlabelled SDF1. This level of displacement correspond to a 100% blocking of the CXCR7 protein, as the remaining SDF-1 binding is believed not to be CXCR7 mediated, but due to the SDF-1 interaction with heparan sulfate proteoglycans. Fusion to the human serum albumin-binding Nanobody Alb8 has no significant effect on Ki values.

Human CXCR7 [3] = target: T1, Human CXCR7; assay: FACS, ratio of Hek293 hCXCR7 signal over control cells
Procedure: Clones representing distinct Nanobody B-cell lineages were tested as periplasmic extracts for their binding to cell surface exposed CXCR7. In this assay, 5-fold dilutions of periplasmic extract were incubated with Hek293 hCXCR7 and Hek293 wt cells. Binding of the Nanobodies was detected using mouse anti-myc (Serotec), followed by anti-mouse IgG-PE (Jackson Immununoresearch). Binding signals of selected Nanobody clones (mcf values and ratios of binding) are represented in Table B-8 and indicate that the Nanobodies do bind to cellular human CXCR7.

Molecule | competition (% relative to unlabelled SDF1) (Human CXCR7 [1]) [%] | displacement (% relative to cold SDF1) (Human CXCR7 [2]) [%] | Fod Hek CXCR7/CXCR4 (Human CXCR7 [3]) [fold]
Mab 8F11 (Biolegend) (antibody) | > 95 | 73 | 
B1 |  |  | 73.2
B2 | > 95 | 78 | 
B3 |  |  | 110
B4 |  | 75 | 
B5 |  |  | 60.1
B6 |  | 77 | 
B7 |  |  | 85.1
B8 |  | 75 | 
B9 |  | 24 | 
